Assay results reported in patent publication US20160122431A1.

Target: murine B7-DC (murine) (UniProt Q9WUL5)
Assay: flow cytometry; murine bone marrow derived DC incubated with or without soluble PD-1.Ig, then stained with sHIgM12 (the competitor read out)

Sequence of PD-1.Ig fusion protein (Fc fusion) (Q02242 25-169): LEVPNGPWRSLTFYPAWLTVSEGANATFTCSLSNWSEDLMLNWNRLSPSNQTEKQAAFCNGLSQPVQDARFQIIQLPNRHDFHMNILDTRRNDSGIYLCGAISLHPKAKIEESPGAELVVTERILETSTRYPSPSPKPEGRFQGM
Sequence of murine B7-DC (murine) (Q9WUL5 20-247): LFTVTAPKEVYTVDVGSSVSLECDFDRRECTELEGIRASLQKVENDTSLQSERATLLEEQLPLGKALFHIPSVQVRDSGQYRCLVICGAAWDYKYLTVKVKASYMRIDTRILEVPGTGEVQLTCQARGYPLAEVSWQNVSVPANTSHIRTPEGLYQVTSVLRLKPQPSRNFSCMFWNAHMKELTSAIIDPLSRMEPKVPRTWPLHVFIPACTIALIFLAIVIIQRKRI

## PD-1.Ig fusion protein (Fc fusion)
  sHIgM12 staining left, percent of the level in the absence of PD-1: 50%
